One data set deals with T1, xUbcH7 (human), R5E, K9E.
T1 chain: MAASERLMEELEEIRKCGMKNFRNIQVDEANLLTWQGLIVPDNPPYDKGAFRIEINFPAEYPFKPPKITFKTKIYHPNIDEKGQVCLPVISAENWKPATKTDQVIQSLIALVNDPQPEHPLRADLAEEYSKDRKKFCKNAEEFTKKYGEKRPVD

The results in this text go back to patent publication US20200199576.

Sequence of p53, P04637 (P04637 whole entry, looked up): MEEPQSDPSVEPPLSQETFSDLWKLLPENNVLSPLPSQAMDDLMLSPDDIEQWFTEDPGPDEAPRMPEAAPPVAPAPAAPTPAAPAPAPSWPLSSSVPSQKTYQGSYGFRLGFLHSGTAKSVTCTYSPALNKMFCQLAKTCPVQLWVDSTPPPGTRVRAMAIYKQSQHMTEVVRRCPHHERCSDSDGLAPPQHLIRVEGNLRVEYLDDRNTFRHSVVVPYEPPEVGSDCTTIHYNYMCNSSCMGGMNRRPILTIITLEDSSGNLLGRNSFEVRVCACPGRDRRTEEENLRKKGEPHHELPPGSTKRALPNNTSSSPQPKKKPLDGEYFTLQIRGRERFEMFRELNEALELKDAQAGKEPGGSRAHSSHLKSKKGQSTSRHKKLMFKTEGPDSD

B1: HECT domain of wt Smurf1 (protein)
chain: YERDLVQKLKVLRHELSLQQPQAGHCRIEVSREEIFEESYRQIMKMRPKDLKKRLMVKFRGEEGLDYGGVAREWLYLLCHEMLNPYYGLFQYSTDNIYMLQINPDSSINPDHLSYFHFVGRIMGLAVFHGHYINGGFTVPFYKQLLGKPIQLSDLESVDPELHKSLVWILENDITPVLDHTFCVEHNAFGRILQHELKPNGRNVPVTEENKKEYVRLYVNWRFMRGIEAQFLALQKGFNELIPQHLLKPFDQKELELIIGGLDKIDLNDWKSNTRLKHCVADSNIVRWFWQAVETFDEERRARLLQFVTGSTRVPLQGFKALQGSTGAAGPRLFTIHLIDANTDNLPKAHTCFNRIDIPPYESYEKLYEKLLTAVEETCGFAVE
On to B1, for which the “HECT auto-ubiquitination with wt UB, reducing gel” value with wt UbcH7 (human E2) was “HECT domains of wt E6AP, Nedd4, Smurf1 and Smurf2 can be loaded with wt UB through the wt Uba1-UbcH7 pair”. Besides, in the data set with xUbcH7 (human), R5E, K9E, the “HECT auto-ubiquitination with xUB, reducing gel” value was “the R5E and K9E mutants in the N-terminal helix of xUbcH7 interfered with the transfer of xUB to wt HECT E3s such as E6AP, Nedd4, Smurf1, and Smurf2”.

B2: HECT domain of wt Nedd4 (protein)
chain: SRDYKRKYEFFRRKLKKQNDIPNKFEMKLRRATVLEDSYRRIMGVKRADFLKARLWIEFDGEKGLDYGGVAREWFFLISKEMFNPYYGLFEYSATDNYTLQINPNSGLCNEDHLSYFKFIGRVAGMAVYHGKLLDGFFIRPFYKMMLHKPITLHDMESVDSEYYNSLRWILENDPTELDLRFIIDEELFGQTHQHELKNGGSEIVVTNKNKKEYIYLVIQWRFVNRIQKQMAAFKEGFFELIPQDLIKIFDENELELLMCGLGDVDVNDWREHTKYKNGYSANHQVIQWFWKAVLMMDSEKRIRLLQFVTGTSRVPMNGFAELYGSNGPQSFTVEQWGTPEKLPRAHTCFNRLDLPPYESFEELWDKLQMAIENTQGFDGVD
B2: the “HECT auto-ubiquitination with wt UB, reducing gel” value with wt UbcH7 (human E2) is “HECT domains of wt E6AP, Nedd4, Smurf1 and Smurf2 can be loaded with wt UB through the wt Uba1-UbcH7 pair”. Moreover, the “HECT auto-ubiquitination with xUB, reducing gel” value with xUbcH7 (human), R5E, K9E was “the R5E and K9E mutants in the N-terminal helix of xUbcH7 interfered with the transfer of xUB to wt HECT E3s such as E6AP, Nedd4, Smurf1, and Smurf2”.

B3: E6AP HECT mutant YW6 (D651R, D652E, M653W, M654H) (protein)
chain: MKRAAAKHLIERYYHQLTEGCGNEACTNEFCASCPTFLRMDNNAAAIKALELYKINAKLCDPHPSKKGASSAYLENSKGAPNNSCSEIKMNKKGARIDFKDVTYLTEEKVYEILELCREREDYSPLIRVIGRVFSSAEALVQSFRKVKQHTKEELKSLQAKDEDKDEDEKEKAACSAAAMEEDSEASSSRIGDSSQGDNNLQKLGPDDVSVDIDAIRRVYTRLLSNEKIETAFLNALVYLSPNVECDLTYHNVYSRDPNYLNLFIIVMENRNLHSPEYLEMALPLFCKAMSKLPLAAQGKLIRLWSKYNADQIRRMMETFQQLITYKVISNEFNSRNLVNDDDAIVAASKCLKMVYYANVVGGEVDTNHNEEDDEEPIPESSELTLQELLGEERRNKKGPRVDPLETELGVKTLDCRKPLIPFEEFINEPLNEVLEMDKDYTFFKVETENKFSFMTCPFILNAVTKNLGLYYDNRIRMYSERRITVLYSLVQGQQLNPYLRLKVRRDHIIDDALVRLEMIAMENPADLKKQLYVEFEGEQGVDEGGVSKEFFQLVVEEIFNPDIGMFTYDESTKLFWFNPSSFETEGQFTLIGIVLGLAIYNNCILDVHFPMVVYRKLMGKKGTFRDLGDSHPVLYQSLKDLLEYEGNVEREWHITFQISQTDLFGNPMMYDLKENGDKIPITNENRKEFVNLYSDYILNKSVEKQFKAFRRGFHMVTNESPLKYLFRPEEIELLICGSRNLDFQALEETTEYDGGYTRDSVLIREFWEIVHSFTDEQKRLFLQFTTGTDRAPVGGLGKLKMIIAKNGPDTERLPTSHTCFNVLLLPEYSSKEKLKERLLKAITYAKGFGML
Take B3: the “HECT auto-ubiquitination with xUB, Western blot” value in the data set with xUbcH7 (human), R5E, K9E was “YW3, YW4 and YW6 could be efficiently auto-ubiquitinated with xUB through the xUba1-xUbcH7 pair”.

B4: xE6AP (fYW6), full-length E6AP with the YW6 HECT domain (protein)
chain: B3 chain
As to B4, the “full-length E6AP auto-ubiquitination with xUB, Western blot” value with xUbcH7 (human), R5E, K9E was “fYW4 and fYW6 can be auto-ubiquitinated by xUB through the xUba1-xUbcH7 cascade”. The “p53 ubiquitination in the presence of E6, Western blot” value with p53, P04637 was “fYW6 could efficiently ubiquitinate p53 with xUB through the xUba1-xUbcH7-fYW6 cascade and the ubiquitination was dependent on the E6 protein”.
